Source: patent US20260116991A1 (HAINAN SIMCERE ZAIMING PHARMACEUTICAL, published 2026)
Blank lines part the entries; values can stand above or below the binder they belong to.

Experiments:
[1] = molecular target: T1, polypeptide GC3pep (human); experiment: ELISA, GC3pep coated, antibody 10 nM;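 further: antibody bound to the coated peptide for 2 h at 37 °C, detected through an HRP-conjugated secondary antibody with TMB colour development stopped by acid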
T1 construct: also called membrane proximal polypeptide GC3pep
T1 peptide: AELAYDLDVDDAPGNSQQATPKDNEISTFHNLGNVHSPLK

[2] = molecular target: T1, polypeptide GC3pep; experiment: ELISA, GC3pep coated, antibody 0.1 nM;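 further: antibody allowed to bind the coated plate 2 h at 37 °C, then detected via HRP-conjugated secondary antibody and TMB development for 10 min, stopped with HCl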
[3] = molecular target: T1, polypeptide GC3pep; experiment: ELISA, GC3pep coated, antibody 0.0001 nM
[4] = molecular target: T1, polypeptide GC3pep; experiment: ELISA, GC3pep coated, antibody 0.01 nM;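 further: bound antibody detected with an HRP-conjugated secondary antibody and TMB substrate, color reaction stopped with HCl before reading absorbance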
Experimental: The plate was sealed with a plastic film and incubated at 4° C. overnight, washed twice with PBS the next day, and a blocking solution [PBS+2% (w/w) BSA] was added for blocking at room temperature for 2 h. […] After incubation at 37° C. for 2 h, the plate was washed 3 times with PBS. A horseradish peroxidase (HRP)-labeled secondary antibody (purchased from Merck, Cat. No. AP113P) was added for incubation at 37° C. for 1 h, and the plate was washed 5 times with PBS. A TMB substrate was added at 50 μL/well for incubation at room temperature for 10 min, then a stop solution (1.0M HCl) was added at 50 μL/well.

[5] = molecular target: T1, polypeptide GC3pep; experiment: ELISA, GC3pep coated, antibody 100 nM;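 further: detection with an HRP-conjugated secondary antibody and TMB substrate, color reaction stopped with HCl before absorbance reading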
[6] = molecular target: T1, polypeptide GC3pep; experiment: ELISA, GC3pep coated, antibody 0.001 nM
[7] = molecular target: T1, polypeptide GC3pep; experiment: ELISA, GC3pep coated, antibody 1 nM;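 further: bound antibody detected with an HRP-conjugated secondary antibody and TMB substrate, reaction stopped with HCl, after 2 h binding at 37 °C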

OD450 nm [1]: 0.06 OD450 nm
OD450 nm [2]: 0.04 OD450 nm
OD450 nm [3]: 0.05 OD450 nm
OD450 nm [4]: 0.05 OD450 nm
OD450 nm [5]: 0.08 OD450 nm
OD450 nm [6]: 0.07 OD450 nm
OD450 nm [7]: 0.06 OD450 nm
B1: F1.9.19 (antibody, human IgG1, kappa, V domains shown)
VH: DVQLQESGPGLVKPSQSLSLTCSVTGYSITSGYYWNWIRQFPGNRLEWMAYISYDGINNYNPSLKNRISIARDTSTNQFFLKLNSVTSEDTATYYCATTTEVALFDHWGQGTTLTVSS
VL: DVLLTQTPLSLPVSLGDQASISCRSSQNIVHGNGNTYLEWFLQKPGQSPKLLIYKVSNRFSGVPDRFSGSGSGTDFTLKISRVEAEDLGLYYCFQASHVPWTFGGGTKLEIKR
notes: human-murine chimeric antibody

OD450 nm [1]: 0.04 OD450 nm
OD450 nm [2]: 0.04 OD450 nm
OD450 nm [3]: 0.05 OD450 nm
OD450 nm [4]: 0.04 OD450 nm
OD450 nm [5]: 0.08 OD450 nm
OD450 nm [6]: 0.04 OD450 nm
OD450 nm [7]: 0.04 OD450 nm
B2: F1.136.7 (antibody, human IgG1, kappa, V domains shown)
VH: EVQLQQSGPVMVKPGPSVKISCQTSGFTFTDYYIHWVKQSHGKSLEWIGLVFPYDGGTNYNQKFKDKATLTLDTSSSTAYMELNSLTSEDSAVYYCARAGGFSYALNYWGQGTSVTVSS
VL: DIQMTQSPSSLSASLGGKVTITCKASQDINNYIAWYQHKPGKGPRLLIHFTSTLQPGIPSRFSGSGSGRDYSFSISNLEPEDIATYYCLQYDNLLLTFGAGTKLELKR
notes: as for B1

OD450 nm [1]: 0.07 OD450 nm
OD450 nm [2]: 0.05 OD450 nm
OD450 nm [3]: 0.05 OD450 nm
OD450 nm [4]: 0.05 OD450 nm
OD450 nm [5]: 0.13 OD450 nm
OD450 nm [6]: 0.05 OD450 nm
OD450 nm [7]: 0.05 OD450 nm
B3: F1.62.9 (antibody, human IgG1, kappa, V domains shown)
VH: QVQLQQSDAELVKPGASVKISCKVSGYIFTDHTIHWMKQRPEQGLEWIGYIYPRDGSIKYNENFKGKATLTADKSSSATYMQLNSLTSEDSAVYFCARPIYYDYAYYFDYWGQGTTLTVSS
VL: DVVMTQSPLSLPVSLGDQASISCRSRQSLVHSNGNTYLHWYLQKPGQSPKVLIYKVSNRFSGVPDRFSGSGSGTDFTLKISRVEAEDLGVYFCSQSTHVPYTFGGGTKLEIKR
notes: as for B1

OD450 nm [1]: 0.05 OD450 nm
OD450 nm [2]: 0.05 OD450 nm
OD450 nm [3]: 0.05 OD450 nm
OD450 nm [4]: 0.05 OD450 nm
OD450 nm [5]: 0.06 OD450 nm
OD450 nm [6]: 0.05 OD450 nm
OD450 nm [7]: 0.05 OD450 nm
B4: F1.57.21 (antibody, human IgG1, kappa, V domains shown)
VH: QVQLQQSGAELARPGASVKLSCKASGYTFTSYGISWVKQITGQGLEWIGEIYPRSESTYYNEKFKGKATLTADKSSSTAYMELRSLTSEDSAVYFCARDYGNIYSFAYWGQGTLVTVSA
VL: DIQMTQSPASLSASVGETVTITCRTSENIYSYLAWYQQKQGKSPQLLVYNAKTLAEGVPSRFSGSGSGTQFSLKINSLQPEDFGSYYCQHHYGTPLTFGAGTKLELKR
notes: as for B1

OD450 nm [1]: 0.06 OD450 nm
OD450 nm [2]: 0.06 OD450 nm
OD450 nm [3]: 0.05 OD450 nm
OD450 nm [4]: 0.05 OD450 nm
OD450 nm [5]: 0.1 OD450 nm
OD450 nm [6]: 0.05 OD450 nm
OD450 nm [7]: 0.05 OD450 nm
B8: F1.92.17 (antibody, human IgG1, kappa, V domains shown)
VH: EVQLQQSGPELVKPGASVKMSCKASGYTFTDYNMHWVRQSHGKSLEWIGYINPNNGDTIYNQNFKGKATLTVNKSSSTAYMELRSLTSEDSAVYYCSRTITYYYSMDYWGPGTSVTVSS
VL: QIVLTQSPALMSASPGEKVTMTCSASSSVSYMYWYQQKPRSSPKPWIYLTSNLASGVPARFSGSGSGTSYSLTISSMEAEDAATYYCQQWSSNPLTFGAGTKLELKR
notes: as for B1

Continued, binder first:

B5: F1.41.17 (antibody, human IgG1, kappa, V domains shown)
VH: EVQLVESGGDSVKPGGSLKLSCAASGFTFSSYGMSWVRQTPDKRLEWVATINSGGSYTYYQDSVKGRFTISRDNAKNTLYLQMSSLKSEDTAIYYCVRHHYGSSYDYFDYWGQGTTLTVSS
VL: DIVMTQAAPSVPVMPGESVSISCRSSKSLLHSNGNTHLYWFLQRPGQSPQLLIYRMSNLASGVPDRFSGSGSGTAFTLRISRVEAEDVGVYYCMQHLEYPLTFGAGTKLELKR
notes: as for B1
OD450 nm [1]: 0.05 OD450 nm
OD450 nm [2]: 0.05 OD450 nm
OD450 nm [3]: 0.05 OD450 nm
OD450 nm [4]: 0.05 OD450 nm
OD450 nm [5]: 0.06 OD450 nm
OD450 nm [6]: 0.05 OD450 nm
OD450 nm [7]: 0.05 OD450 nm

B6: F1.83.6 (antibody, human IgG1, kappa, V domains shown)
VH: QVQLQQSGPELVKPGASVKISCKASGYAFSSSWMNWVKQRPGKGLEWIGRIYPGDGDTNYNGRFKGKATLTVDKSSSTAYMQLSSLTSEDSAVYFCARGGVFTMALDHWGQGTTLTVSS
VL: DIQMTQSPSSLSASLGGKVTITCKASQDINKYIAWYQHKPGKGPRLLIHYTSTLQPGIPSRFSGSGSGRDYSFSISNLEPEDIATYYCLQYDNLFTFGGGTKLEIKR
notes: as for B1
OD450 nm [1]: 0.06 OD450 nm
OD450 nm [2]: 0.05 OD450 nm
OD450 nm [3]: 0.04 OD450 nm
OD450 nm [4]: 0.05 OD450 nm
OD450 nm [5]: 0.07 OD450 nm
OD450 nm [6]: 0.05 OD450 nm
OD450 nm [7]: 0.05 OD450 nm

B7: F1.3.9 (antibody, human IgG1, kappa, V domains shown)
VH: QVQLQQPGTELVKPGASVKLSCKASGYTFTSYWIHWVKQRPGQGLEWIGNINPPNAGTNYNEKFKSKATLTVDKSSSTAYMQLSSLTSEDSAVYYCARGRWLLHDYWGQGTTLTVSS
VL: DIQMTQSPASLSISVGETVTITCRASENIYSNLAWYQQKQGKSPQLLVYGTKNLAEGVPSRFSGSGSGTQYSLKINSLQSEDFGNYYCQHFWGTPYTFGGGTKLEILR
notes: as for B1
OD450 nm [1]: 0.06 OD450 nm
OD450 nm [2]: 0.05 OD450 nm
OD450 nm [3]: 0.07 OD450 nm
OD450 nm [4]: 0.05 OD450 nm
OD450 nm [5]: 0.13 OD450 nm
OD450 nm [6]: 0.05 OD450 nm
OD450 nm [7]: 0.05 OD450 nm
